Source: US20150253335

Assays:
[1] = tested on: crypto-P. fluorescens PltL labeled with coumarin-PPant
[2] = tested on: crypto-L. majuscula JamC labeled with coumarin-PPant
[3] = tested on: crypto-P. agglomerans AdmA labeled with coumarin-PPant
[4] = tested on: crypto-ybbR free peptide (coumarin-PPant labeled 11 amino acid ybbR)
[5] = tested on: crypto-ybbR-eGFP fusion with N-terminal GFP and C-terminal 6xHis (coumarin-PPant labeled)
[6] = tested on: holo-SoAcpP (S. oneidensis type II FAS AcpP)
[7] = tested on: crypto-E. coli AcpP (type II FAS acyl carrier protein labeled with coumarin-PPant)
[8] = tested on: crypto-M. tuberculosis AcpM (Type II) labeled with coumarin-PPant
[9] = tested on: crypto-A. orientalis CepK labeled with coumarin-PPant
[10] = tested on: crypto-FITC-ybbR (rhodamine WT PPant-labeled FITC-ybbR)
[11] = tested on: crypto-L. majuscula JamF labeled with coumarin-PPant
[12] = tested on: crypto-A. parasiticus PksA carrier protein labeled with coumarin-PPant
[13] = tested on: crypto-G. fujikuroi Pks4 carrier protein labeled with coumarin-PPant
[14] = tested on: crypto-ybbR-eGFP fusion with N-terminal 6xHis and C-terminal GFP (coumarin-PPant labeled)
[15] = tested on: crypto-V. cholerae VibB labeled with coumarin-PPant
[16] = tested on: crypto-S. coelicolor ActACP labeled with coumarin-PPant
[17] = tested on: crypto-P. syringae SyrB1 labeled with coumarin-PPant
[18] = tested on: crypto-P. falciparum apicoplast ACP (Type II) labeled with coumarin-PPant
[19] = tested on: crypto-P. agglomerans AdmI labeled with coumarin-PPant
[20] = tested on: crypto-MBP-PaAcpP (MBP fusion of P. aeruginosa AcpP labeled with coumarin-PPant)
[21] = tested on: coumarin-PPant labeled FITC-ybbR conjugate
[22] = tested on: crypto-GFP-ACP (rhodamine-PPT labeled fusion of E. coli ACP with GFP)
[23] = tested on: crypto-Lux-ACP (rhodamine-PPT labeled fusion of bacterial luciferase with E. coli ACP)
[24] = tested on: crypto-MBP-PaACP (rhodamine-PPT labeled MBP fusion of P. aeruginosa ACP)

Substance | AcpH qualitative CP activity [1] | AcpH qualitative CP activity [2] | AcpH qualitative CP activity [3] | AcpH activity with modified ybbR peptide [4] | AcpH activity with modified ybbR peptide [5] | AcpH qualitative CP activity [6] | AcpH qualitative CP activity [7] | AcpH qualitative CP activity [8] | AcpH qualitative CP activity [9] | AcpH qualitative CP activity [11] | AcpH qualitative CP activity [12] | AcpH qualitative CP activity [13] | AcpH activity with modified ybbR peptide [14] | AcpH qualitative CP activity [15] | AcpH qualitative CP activity [16] | AcpH qualitative CP activity [17] | AcpH qualitative CP activity [18] | AcpH qualitative CP activity [19] | AcpH qualitative CP activity [20] | AcpH activity with modified ybbR peptide [21] | other results
acyl carrier protein hydrolase (AcpH) from Cyanothece PCC 7822 | no | YES | no | YES | YES | YES^† | YES | YES | no | no | YES | no | YES | no | no | no | YES | no | YES | YES | Km [10]: 21 µM; Vmax [10]: 0.004 min⁻¹; kcat [10]: 6.67e-05 s⁻¹; kcat/KM [10]: 3.33 M⁻¹ s⁻¹; Km (holo-E. coli AcpP): 58 µM; Vmax (holo-E. coli AcpP): 1.1 min⁻¹; kcat (holo-E. coli AcpP): 3.52 s⁻¹; kcat/KM (holo-E. coli AcpP): 60000 M⁻¹ s⁻¹
acyl carrier protein hydrolase (AcpH) from Pseudomonas aeruginosa PAO1 | YES | YES | no | no | no | YES^† | YES | YES | no | no | YES | no | no | no | no | no | YES | no | YES | no | removal of rhodamine-PPT from ACP fusion protein [22]: AcpH removed rhodamine-PPT from ACP attached to three different fusion partners ... a C-terminal green fluorescent protein (GFP); AcpH activity with NRPS-type peptidyl carrier proteins [1]: The observed partial activity resulted from PaAcpH with PltL; removal of rhodamine-PPT from ACP fusion protein [23]: AcpH removed rhodamine-PPT from ACP attached to three different fusion partners ... an N-terminal bacterial luciferase fusion (Lux-ACP); removal of rhodamine-PPT from ACP fusion protein [24]: AcpH removed rhodamine-PPT from ACP attached to three different fusion partners, an N-terminal maltose binding protein (MBP); Km [10]: 177 µM; Vmax [10]: 0.008 min⁻¹; kcat [10]: 0.000133 s⁻¹; kcat/KM [10]: 0.783 M⁻¹ s⁻¹; Km (holo-E. coli AcpP): 12 µM; Vmax (holo-E. coli AcpP): 0.59 min⁻¹; kcat (holo-E. coli AcpP): 0.00983 s⁻¹; kcat/KM (holo-E. coli AcpP): 817 M⁻¹ s⁻¹
annotated hypothetical AcpH homolog from Shewanella oneidensis MR-1 | no | no | no | no | no | no | no | no | no | no | no | no | no | no | no | no | no | no | no | no | Vmax (holo-E. coli AcpP): NC†
acyl carrier protein hydrolase (AcpH) from Pseudomonas fluorescens NCIMB 10586 | no | YES | no | YES | YES | YES^† | YES | YES | no | no | YES | YES | YES | no | YES | no | YES | YES | YES | YES | Km [10]: 48 µM; Vmax [10]: 0.17 min⁻¹; kcat [10]: 0.00283 s⁻¹; kcat/KM [10]: 50 M⁻¹ s⁻¹
